For one substance, IC50 results are on record in patent US20080287363A1.

Assay [1] addresses CCL5/RANTES (UniProt P13501). The assay is described as follows: equilibrium competition receptor binding assay (SPA): inhibition of 0.1 nM 125I-RANTES binding to CHO/CCR5 membranes.
Assay [2] concerns the target CCL5/RANTES (UniProt P13501). Nature of the assay: equilibrium competition receptor binding assay (SPA): inhibition of 0.1 nM 125I-RANTES binding to CHO/CCR1 membranes.

In general, IC50 refers to the concentration needed to halve the response being measured. Higher therefore signals weaker potency in that assay.

Sequence of CCL5/RANTES (P13501 24-91 limits assumed): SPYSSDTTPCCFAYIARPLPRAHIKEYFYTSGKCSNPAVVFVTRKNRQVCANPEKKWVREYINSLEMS

As for “recombinant Δ6 evasin-4 (truncated, N-terminally 6His tagged evasin-4, amino acids 24-127), purified”, the IC50 in the assay with CCL5/RANTES [1] was 3 nM; with CCL5/RANTES [2], 7 nM.
